The record followed here is patent US5948668.

Assay [1] addresses recombinant rat procarboxypeptidase B expressed by plasmid pλProCPB (rat).
The target in assay [2] is recombinant rat procarboxypeptidase B with the Cys290->Ser mutation, expressed by plasmid pProCPB-C (rat).

trypsin (enzyme): the Specific Activity (u/mg) of CPB (Hippuryl-L-Arg substrate) after folding of ProCPB and trypsin treatment in assay [1] stood at 42.9 u/mg. The Specific Activity (u/mg) of CPB-C (Hippuryl-L-Arg substrate) after folding of ProCPB-C and trypsin treatment in assay [2] came to 20.9 u/mg.
